Tested on: anti-sublancin antibodies
Test: binding of anti-sublancin polyclonal antibodies to the displayed peptide (peroxidase colour reaction, magnetic beads)
Conditions: rabbit antibodies raised against sublancin-KLH conjugate
Procedure: The transformed host was cultured in Medium A to allow the Lantibody Display Peptide to be expressed. Expression was monitored by observing the appearance of the Display Peptide in the cytoplasm of the cell, the membrane, the cell wall and in the extracellular medium. The peptide was detected using polyclonal antibodies raised in rabbits against a sublancin-KLH conjugate as an antigen.
To explore this hypothesis, cells expressing the Lantibody Display Peptide as shown in FIG. 8 were centrifuged out of the culture medium and resuspended in buffer. The cell suspension was treated with anti-sublancin antibodies, and washed to remove any unbound antibody. To determine whether anti-sublancin antibodies were bound to the surface of the cells, goat anti-rabbit antibodies that were conjugated with horseradish peroxidase were added and allowed to adsorb to any antibodies on the surface of the cells. The cells were washed and the peroxidase color reagent was added.

B1: sublancin Display Peptide: mature sublancin segment (1–37), a 20-residue polyglycine spacer (38–57) and the subtilin leader segment (58–81) (protein)
chain: MEKLFKEVKLEELENQKGSGLGKAQCAALWLQCASGGTIGCGGGAVACQNYRQFCRGGGGGGGGGGGGGGGGGGGGMSKFDDFDLDVVKVSKQDSKITPQ
modifications: The peptide sequence of sunA-PG20-SL.
binding to polyclonal anti-sublancin antibody: recognize and bind to a target substrate
binding to polyclonal anti-sublancin antibody (listed as Sublancin Display Peptide): responsible for the binding to sublancin antibodies

Reference: patent publication US7033766B2, “Construction and screening of lantibody display libraries” (University of Maryland Office of Technology …, priority 2000, dated 2006)
